Two substances from publication PMC5805628 can be followed below.

The experiment has as its target EGFR co-transfected into Q293 cells (UniProt P00533). In words: co-IP.

As for “TROY CRD2 (from UniProt Q9NS68 30-423) (receptor)”, the amount in the anti-EGFR immunoprecipitate, normalized to wild type TROY amounted to 0.43.

Turning to “TROY CRD3 (from UniProt Q9NS68 30-423) (receptor)”, the amount in the anti-EGFR immunoprecipitate, normalized to wild type TROY amounted to 0.83.
